{
  "source": "paper PMC9133651",
  "about": "“Elucidation of physico-chemical principles of high-density lipoprotein–small RNA binding interactions”",
  "experiment_in_all_cases": "MST",
  "conditions_in_all_cases": "MST: 100 nM AF647 oligo (90 C 2 min, cooled) mixed 1:1 with ligand in PBS, RT, 5 min; EMSA: 1 uM AF546 oligo, UV 254 nm 15 min on ice, 4-16% NativePAGE, 0.5x …",
  "key": {"[1]": {"target": "native HDL (DGUC-HDL, apoA-I-containing lipoprotein particle) (Homo sapiens) (UniProt P02647)", "sequence (P02647 whole entry)": "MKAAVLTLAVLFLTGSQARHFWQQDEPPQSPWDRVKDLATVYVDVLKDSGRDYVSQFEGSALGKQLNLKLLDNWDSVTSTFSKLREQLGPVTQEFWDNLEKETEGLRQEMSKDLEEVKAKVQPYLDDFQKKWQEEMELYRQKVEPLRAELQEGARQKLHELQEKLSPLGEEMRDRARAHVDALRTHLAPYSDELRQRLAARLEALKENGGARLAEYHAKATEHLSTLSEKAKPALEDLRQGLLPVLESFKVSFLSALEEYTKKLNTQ"}, "[2]": {"target": "native HDL (DGUC-HDL, apoA-I-containing lipoprotein particle) (Homo sapiens) (UniProt P02647)", "remark": "listed apart in the source"}, "[3]": {"target": "native HDL (DGUC-HDL, apoA-I-containing lipoprotein particle) (Homo sapiens) (UniProt P02647)", "remark": "listed apart in the source"}, "[4]": {"target": "native HDL (DGUC-HDL, apoA-I-containing lipoprotein particle) (Homo sapiens) (UniProt P02647)", "remark": "listed apart in the source"}},
  "data": [
    {"sequence": "CCGGCUAGCUCAGUCGGUAGAGCAUGAGAC [tDR-LysCTT-30]", "values": [
      {"measurement": "Kd", "setting": "[1]", "value": 3.8, "unit": "µM"}
    ]},
    {"sequence": "CUGCCACGCGGGAGGCCCGGGUUCGAUUCC [tDR-GlyGCC-3'-tRH-30]", "values": [
      {"measurement": "Kd", "setting": "[2]", "value": 0.085, "unit": "µM"}
    ]},
    {"sequence": "GCAUUGGUGGUUCAG [tDR-GlyGCC-5'-tRH-5'tRF-15]", "values": [
      {"measurement": "Kd", "setting": "[2]", "value": 0.115, "unit": "µM"}
    ]},
    {"sequence": "GCAUUGGUGGUUCAGUGGUAGAAUUCUCGC / GCGAGAAUUCUACCACUGAACCACCAAUGC [dsRNA-tDR-GlyGCC-30]", "values": [
      {"measurement": "Kd", "setting": "[3]", "value": 0.972, "unit": "µM"}
    ]},
    {"sequence": "GCAUUGGUGGUUCAGUGGUAGAAUUCUCGC [tDR-GlyGCC-30 (5'-tRH-30)]", "values": [
      {"measurement": "Kd", "setting": "[4]", "value": 0.054, "unit": "µM"},
      {"measurement": "Kd", "setting": "[1]", "value": 0.259, "unit": "µM"},
      {"measurement": "Kd", "setting": "[3]", "value": 0.153, "unit": "µM"},
      {"measurement": "Kd", "setting": "[2]", "value": 0.016, "unit": "µM"}
    ]},
    {"sequence": "GCGCCGCUGGUGUAGUGGUAUCAUGCAAGA [tDR-GlyCCC-30]", "values": [
      {"measurement": "Kd", "setting": "[1]", "value": 34, "unit": "µM"}
    ]},
    {"sequence": "UGGUAGAAUUCUCGC [tDR-GlyGCC-5'-tRH-3'-tRF-15]", "values": [
      {"measurement": "Kd", "setting": "[2]", "value": 0.124, "unit": "µM"}
    ]}
  ]
}
